Measured values reported in publication PMC5037330, “Large-Scale Movements of IF3 and tRNA during Bacterial Translation Initiation” (Cell, 2016).

Target: T1, IF3 Thermus thermophilus (Thermus thermophilus, UniProt Q5SKU2 1-171)
T1 construct: Translation initiation factor IF3 of Thermus thermophilus; residues 3 to 170 were modelled (N-terminal domain, helical linker, C-terminal domain); also called initiation factor 3; NTD; source: E. coli BL21(DE3), purified (same protocol as IF1: 65°C heat step, ion exchange, hydroxylapatite)
T1 sequence: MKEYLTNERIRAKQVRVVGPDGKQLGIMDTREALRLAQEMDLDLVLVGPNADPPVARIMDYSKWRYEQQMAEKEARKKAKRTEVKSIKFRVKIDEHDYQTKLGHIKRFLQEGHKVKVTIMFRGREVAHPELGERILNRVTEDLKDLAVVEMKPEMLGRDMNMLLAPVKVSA
Test: cryo-EM structure; Sample 1 (without IF2): T. thermophilus 30S, IF1, IF3, mRNA and fMet-tRNA mixed 1:4:4:3:3, complex at 120 nM, 5 mM HEPES pH 7.5, 10 mM MgAc, 50 mM KCl, 10 mM NH4Cl, 6 mM 2-mercaptoethanol; put on grids without further purification; classes PIC-1A to PIC-4
Conditions: both partners purified

binding result: binds
B1: IF1 Thermus thermophilus (natural protein)
chain: MAKEKDTIRTEGVVTEALPNATFRVKLDSGPEILAYISGKMRMHYIRILPGDRVVVEITPYDPTRGRIVYRK
notes: Translation initiation factor IF1 of Thermus thermophilus, expressed as in Carter et al., 2001; also called initiation factor 1; source: E. coli BL21(DE3), purified (65°C heat step, ion exchange, hydroxylapatite)
